According to paper PMC10583550:

Biological target: NtFD1-Flag (Nicotiana tabacum)
Assay: native gel or EMSA; extract of N. benthamiana leaves expressing NtFD1-Flag loaded directly onto a native PAGE gel, then western blotting; native protein marker GAPDH used for size

Substance: NtFD1-Flag (natural protein)
- stoichiometry N: 4
